Source: IntAct's records for PubMed 23219551

B1: DNA ligase 4 (Homo sapiens), P49917 (parent)
chain: MAASQTSQTVASHVPFADLCSTLERIQKSKGRAEKIRHFREFLDSWRKFHDALHKNHKDVTDSFYPAMRLILPQLERERMAYGIKETMLAKLYIELLNLPRDGKDALKLLNYRTPTGTHGDAGDFAMIAYFVLKPRCLQKGSLTIQQVNDLLDSIASNNSAKRKDLIKKSLLQLITQSSALEQKWLIRMIIKDLKLGVSQQTIFSVFHNDAAELHNVTTDLEKVCRQLHDPSVGLSDISITLFSAFKPMLAAIADIEHIEKDMKHQSFYIETKLDGERMQMHKDGDVYKYFSRNGYNYTDQFGASPTEGSLTPFIHNAFKADIQICILDGEMMAYNPNTQTFMQKGTKFDIKRMVEDSDLQTCYCVFDVLMVNNKKLGHETLRKRYEILSSIFTPIPGRIEIVQKTQAHTKNEVIDALNEAIDKREEGIMVKQPLSIYKPDKRGEGWLKIKPEYVSGLMDELDILIVGGYWGKGSRGGMMSHFLCAVAEKPPPGEKPSVFHTLSRVGSGCTMKELYDLGLKLAKYWKPFHRKAPPSSILCGTEKPEVYIEPCNSVIVQIKAAEIVPSDMYKTGCTLRFPRIEKIRDDKEWHECMTLDDLEQLRGKASGKLASKHLYIGGDDEPQEKKRKAAPKMKKVIGIIEHLKAPNLTNVNKISNIFEDVEFCVMSGTDSQPKPDLENRIAEFGGYIVQNPGPDTYCVIAGSENIRVKNIILSNKHDVVKPAWLLECFKTKSFVPWQPRFMIHMCPSTKEHFAREYDCYGDSYFIDTDLNQLKEVFSGIKNSNEQTPEEMASLIADLEYRYSWDCSPLSMFRRHTVYLDSYAVINDLSTKNEGTRLAIKALELRFHGAKVVSCLAEGVSHVIIGEDHSRVADFKAFRRTFKRKFKILKESWVTDSIDKCELQEENQYLI

Variants of: B1
Conditions: with dcr1c_human DCLRE1C

effect of a mutation on the interaction	Variant
disrupting interaction strength	F42A;F49A
disrupting interaction strength	F42A
disrupting interaction strength	F49A

Continued, variant first:

Variant	effect of a mutation on the interaction
V14A	decreasing interaction strength
D18H	decreasing interaction strength
